Columns and labels:
[1] = molecular target: ASB7-Elongin B-Elongin C ternary complex (wild-type ASB7, residues 11-318) (human) (UniProt Q9H672); test: ITC; peptide in the syringe titrated into ASB7-Elongin B/C in the cell; MicroCal PEAQ-ITC, 16 °C, 20 mM Tris-HCl pH 7.5, 150 mM NaCl; 39–156 μM protein, 0.8–4 mM peptide; repeated three times, mean ± SD
[2] = molecular target: ASB7 with Trp118 in ANK3 or Phe82 in ANK4 replaced with alanine; test: ITC; peptide (0.8–4 mM) titrated into the ASB7 complex (39–156 µM); 16 °C; 20 mM Tris-HCl pH 7.5, 150 mM NaCl; MicroCal PEAQ-ITC
[3] = molecular target: ASB7 Arg185-to-alanine mutant in complex with Elongin B/C (human) (UniProt Q9H672); test: as above
[4] = molecular target: ASB7 D116A mutant in complex with Elongin B/C (human) (UniProt Q9H672); test: as above
[5] = molecular target: ASB7 Phe182 alanine mutant in complex with Elongin B/C (human) (UniProt Q9H672); test: as above
[6] = molecular target: ASB7 R160A mutant in complex with Elongin B/C (human) (UniProt Q9H672); test: as above

## LZTS1 degron peptide, 22 residues (…)
[1]
  Kd: 600 nM
  stoichiometry N: 0.75

## LZTS1-degron 23-residue peptide
[2]
  fold decrease in binding affinity against wild-type ASB7: 10 to 30 fold
[3]
  fold decrease in binding affinity against wild-type ASB7: 4 fold
[4]
  fold reduction in binding against wild-type ASB7: 7 fold
[5]
  fold decrease in binding affinity against wild-type ASB7: 3 fold
[6]
  fold decrease in binding affinity against wild-type ASB7: 3 fold

Reference: PMC11263391, “Molecular insights into degron recognition by CRL5^ASB7 ubiquitin ligase” (Nature Communications, 2024)
